We go through one substance from publication PMC7769003.

The target of the assay is Recombinant VEEV p62-E1 protein (TrD strain) (Venezuelan equine encephalitis virus (TrD strain)). Kind of assay: SPR. For orientation: Surface plasmon resonance follows binding to a sensor surface in real time, without labels.

Regarding “HRV-cleaved monovalent Ldlrad3-D1 (from UniProt A2AR95 18-70) (domain or fragment)”, the Kd (in general, the free concentration of one partner at which half of the binding sites on the other are occupied at equilibrium, for simple one-to-one binding) was 0.209 µM.
